Data published in US20260153518.

Key:
[1] = molecular target: PJ-8 (positive control peptide)
[2] = molecular target: PP-2b (positive control peptide)
[3] = molecular target: candidate peptide No. 11 (hIFN-gamma positions 126-139), 5-carboxyfluorescein labelled
[4] = molecular target: candidate peptide No. 15 (mIFN-gamma positions 128-141), 5-carboxyfluorescein labelled
[5] = molecular target: candidate peptide No. 16 (mIFN-gamma positions 143-154), 5-carboxyfluorescein labelled
[6] = molecular target: candidate peptide No. 17 (mCXCL-1 positions 1-14, Cys replaced with Ser), 5-carboxyfluorescein labelled
[7] = molecular target: candidate peptide No. 19 (hCXCL-7 positions 76-89), 5-carboxyfluorescein labelled
[8] = molecular target: candidate peptide No. 2 (hCCL-14 positions 61-74), 5-carboxyfluorescein labelled
[9] = molecular target: candidate peptide No. 20 (hCXCL-3 positions 1-14, Cys replaced with Ser), 5-carboxyfluorescein labelled
[10] = molecular target: candidate peptide No. 22 (hCXCL-5 positions 3-15, Cys replaced with Ser), 5-carboxyfluorescein labelled
[11] = molecular target: candidate peptide No. 4 (hIFN-alpha-10 positions 150-161), 5-carboxyfluorescein labelled
[12] = molecular target: candidate peptide No. 5 (hIFN-alpha-6 positions 154-165), 5-carboxyfluorescein labelled
[13] = molecular target: candidate peptide No. 6 (hIFN-alpha-6 positions 150-161), 5-carboxyfluorescein labelled
[14] = molecular target: candidate peptide No. 7 (hIFN-alpha-2 positions 154-165), 5-carboxyfluorescein labelled

B1: human MMP12 (matrix metalloproteinase 12), activated with APMA (protein)
chain: GPVWRKHYITYRINNYTPDMNREDVDYAIRKAFQVWSNVTPLKFSKINTGMADILVVFARGAHGDFHAFDGKGGILAHAFGPGSGIGGDAHFDEDEFWTTHSGGTNLFLTAVHEIGHSLGLGHSSDPKAVMFPTYKYVDINTFRLSADDIRGIQSLYGDPKENQRLPNPDNSEPALCDPNLSFDAVTTVGNKIFFFKDRFFWLKVSERPKTSVNLISSLWPTLPSGIEAAYEIEARNQVFLFKDDKYWLISNLRPEPNYPKSIHSFGFPNFVKKIDAAVFNPRFYRTYFFVDNQYWRYDERRQMMDPGYPKLITKNFQGIGPKIDAVFYSKNKYYYFFQGSNQFEYDFLLQRITKTLKSNSWFGC
Question: What does the source list for B1?
Answer: cleavage by MMP12 (UPLC) [1]: it was confirmed that the two positive controls were cleaved by MMP12 (data is not shown); cleavage by MMP12 (UPLC) [2]: it was confirmed that the two positive controls were cleaved by MMP12 (data is not shown); Cleavage rate (%) [3]: 100%; Cleavage rate (%) [4]: 10.5%; Cleavage rate (%) [5]: 61.7%; Cleavage rate (%) [6]: 98.6%; Cleavage rate (%) [7]: 26%; Cleavage rate (%) [8]: 56%; Cleavage rate (%) [9]: 100%; Cleavage rate (%) [10]: 100%; Cleavage rate (%) [11]: 53.5%; Cleavage rate (%) [12]: 38.5%; Cleavage rate (%) [13]: 90.3%; Cleavage rate (%) [14]: 70.4%
